The values that follow come from US20230220458.

This data set deals with HhaI restriction endonuclease. The data set can be described thus: cleavage_in_vitro. The conditions noted are these: 37 C 2 h.

“CGGATAGCGCGGCGGGCGACAGCCCCCCGGATAACCCCGCCGAGGGAGGGGCGCTTGTAAAACCGAGCGGCG (double strand) [lung cancer test locus, unmethylated genomic dsDNA (A-673)]”: the activity (cycles (deltaCq test vs control locus)) (100% dsDNA, no visible amplification of test locus after digestion) is > 18.
“CGGATAGCGCGGCGGGCGACAGCCCCCCGGATAACCCCGCCGAGGGAGGGGCGCTTGTAAAACCGAGCGGCG [lung cancer test locus, synthetic ssDNA oligonucleotide]” returned an activity (cycles (deltaCq test vs control locus)) (100% ssDNA, digestion impaired) of 7.51.
